According to US20100080800A1:

Target: Aβ13-21 peptide (peptide 13)
Experiment: ELISA, biotinylated peptide (Mimotopes protocol)

O.D: 0.171 O.D
Substance: Control IgG (antibody)
